Laboratory results: patent US20220306751A1 (MYTHIC THERAPEUTICS, published 2022)
Where a chain is given by its changes, count along the chain named. Values belong to the binder of their own block, whether it stands above or below them.

Biological target: T1, CD123 Protein, His Tag, Acro Biosciences Cat. No. ILA-H52H6 (Homo sapiens (Human), UniProt P26951 19-305)
T1 construct: Bought protein; not shown: His tag
T1 sequence: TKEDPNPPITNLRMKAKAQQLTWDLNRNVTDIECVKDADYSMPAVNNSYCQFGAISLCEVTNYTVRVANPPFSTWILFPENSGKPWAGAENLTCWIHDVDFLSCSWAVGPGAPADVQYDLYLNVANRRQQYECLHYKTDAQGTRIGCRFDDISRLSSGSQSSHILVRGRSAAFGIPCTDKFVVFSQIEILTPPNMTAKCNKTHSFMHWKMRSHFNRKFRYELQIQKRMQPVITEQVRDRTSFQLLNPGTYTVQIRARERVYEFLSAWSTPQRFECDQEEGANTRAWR
Test: BLI, IgG on anti-human Fc sensor, 50 nM CD123, pH 7.4 and pH 5.4
Procedure, shortened: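 Single His/Ala heavy-chain CDR variants were expressed in Expi293 and captured from diluted supernatant on anti-human Fc sensors. By BLI, association with 50 nM His-tagged CD123 ran for 120 s and dissociation for 300–600 s, all in PBST pH 7.4. The full cycle was repeated separately in PBST pH 5.4.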

B1: MYT1414 (antibody, V domains shown)
VH: QVQLVQSGAEVKKPGASVKMSCKASHYTFTDYYMKWVKQAPGQGLEWIGDIIPSNGATFYNQKFKGKATLTVDRSISTAYMHLNRLRSDDTAVYYCTRSHLLRASWFAYWGQGTLVTVSS
VL: DFVMTQSPDSLAVSLGERATINCKSSQSLLNSGNQKNYLTWYLQKPGQPPKLLIYWASTRESGVPDRFSGSGSGTDFTLTISSLQAEDVAVYYCQNDYSYPYTFGQGTKLEIK
notes: IgG
- binding result: binds

B2: MYT1418 (antibody, V domains shown)
VH: B1 VH with H26G, T30H
VL: B1 VL
notes: IgG
- binding result: binds

B3: MYT1422 (antibody, V domains shown)
VH: B1 VH with H26G, M34H
VL: B1 VL
notes: IgG
- binding result: binds

B4: MYT1416 (antibody, V domains shown)
VH: B1 VH with H26G, T28H
VL: B1 VL
notes: IgG
- binding result: binds

B5: MYT1429 (antibody, V domains shown)
VH: B1 VH with H26G, N55H
VL: B1 VL
notes: IgG
- binding result: binds

B6: MYT1428 (antibody, V domains shown)
VH: B1 VH with H26G, S54H
VL: B1 VL
notes: IgG
- binding result: binds

B7: MYT1420 (antibody, V domains shown)
VH: B1 VH with H26G, Y32H
VL: B1 VL
notes: IgG
- binding result: binds

B8: MYT1415 (antibody, V domains shown)
VH: B1 VH with H26G, Y27H
VL: B1 VL
notes: IgG
- binding result: binds

B9: MYT1423 (antibody, V domains shown)
VH: B1 VH with H26G, K35H
VL: B1 VL
notes: IgG
- binding result: binds

B10: MYT1431 (antibody, V domains shown)
VH: B1 VH with H26G, A57H
VL: B1 VL
notes: IgG
- binding result: binds

B11: MYT1432 (antibody, V domains shown)
VH: B1 VH with H26G, T58H
VL: B1 VL
notes: IgG
- binding result: binds

B12: MYT1426 (antibody, V domains shown)
VH: B1 VH with H26G, I52H
VL: B1 VL
notes: IgG
- binding result: binds

B13: MYT1421 (antibody, V domains shown)
VH: B1 VH with H26G, Y33H
VL: B1 VL
notes: IgG
- binding result: binds

B14: MYT1419 (antibody, V domains shown)
VH: B1 VH with H26G, D31H
VL: B1 VL
notes: IgG
- binding result: binds

B15: MYT1434 (antibody, V domains shown)
VH: B1 VH with H26G, Y60H
VL: B1 VL
notes: IgG
- binding result: binds

B16: MYT1430 (antibody, V domains shown)
VH: B1 VH with H26G, G56H
VL: B1 VL
notes: IgG
- binding result: binds

B17: MYT1433 (antibody, V domains shown)
VH: B1 VH with H26G, F59H
VL: B1 VL
notes: IgG
- binding result: binds

B18: MYT2785 (antibody, V domains shown)
VH: QVQLVQSGAEVKKPGASVKVSCKASGYIFTSSIMHWVRQAPGQGLEWIGYIKPYNDGTKYNEKFKGRATLTSDRSTSTAYMELSSLRSEDTAVYYCAREGGNDYYDTMDYWGQGTLVTVSS
VL: DIQMTQSPSSLSASVGDRVTITCRASQDINSYLSWFQQKPGKAPKTLIYRHNRLVDGVPSRFSGSGSGNDYTLTISSLQPEDFATYYCLQYDAFPYTFGQGTKVEIK
notes: IgG
- binding result: binds

B19: MYT2789 (antibody, V domains shown)
VH: B18 VH
VL: B18 VL with H51V, V55H
notes: IgG
- binding result: binds

B20: MYT2791 (antibody, V domains shown)
VH: B18 VH
VL: B18 VL with H51V, L89H
notes: IgG
- binding result: binds

B21: MYT2796 (antibody, V domains shown)
VH: B18 VH
VL: B18 VL with H51V, F94H
notes: IgG
- binding result: binds

B22: MYT2793 (antibody, V domains shown)
VH: B18 VH
VL: B18 VL with H51V, Y91H
notes: IgG
- binding result: binds

Results, then the binder that gave them:

- binding result: binds
B23: MYT2790 (antibody, V domains shown)
VH: B18 VH
VL: B18 VL with H51V, D56H
notes: IgG

- binding result: binds
B24: MYT2788 (antibody, V domains shown)
VH: B18 VH
VL: B18 VL with H51V, L54H
notes: IgG

- binding result: binds
B25: MYT2792 (antibody, V domains shown)
VH: B18 VH
VL: B18 VL with H51V, Q90H
notes: IgG

- binding result: binds
B26: MYT2787 (antibody, V domains shown)
VH: B18 VH
VL: B18 VL with H51V, R53H
notes: IgG

- binding result: binds
B27: MYT2798 (antibody, V domains shown)
VH: B18 VH
VL: B18 VL with H51V, Y96H
notes: IgG

- binding result: binds
B28: MYT2799 (antibody, V domains shown)
VH: B18 VH
VL: B18 VL with H51V, T97H
notes: IgG

- binding result: binds
B29: MYT2795 (antibody, V domains shown)
VH: B18 VH
VL: B18 VL with H51V, A93H
notes: IgG

- binding result: binds
B30: MYT2797 (antibody, V domains shown)
VH: B18 VH
VL: B18 VL with H51V, P95H
notes: IgG

- binding result: binds
B31: MYT2794 (antibody, V domains shown)
VH: B18 VH
VL: B18 VL with H51V, D92H
notes: IgG

- binding result: binds
B32: MYT2786 (antibody, V domains shown)
VH: B18 VH
VL: B18 VL with H51V, N52H
notes: IgG
